Source: patent US20050244894A1

Biological target: procaspase-3 (endogenous, in cytosolic extract of 293T cells) (human) (UniProt P42574)
Assay: cell-based or functional assay

Sequence of procaspase-3 (endogenous, in cytosolic extract of 293T cells) (human) (P42574 whole entry): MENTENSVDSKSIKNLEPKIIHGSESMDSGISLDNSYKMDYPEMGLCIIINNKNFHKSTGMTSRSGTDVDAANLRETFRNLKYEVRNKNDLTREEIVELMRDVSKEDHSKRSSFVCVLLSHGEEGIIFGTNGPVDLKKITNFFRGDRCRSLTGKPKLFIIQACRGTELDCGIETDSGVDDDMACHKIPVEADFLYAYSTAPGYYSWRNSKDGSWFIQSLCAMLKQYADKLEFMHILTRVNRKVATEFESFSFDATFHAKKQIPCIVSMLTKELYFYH

DEVDase activity of cytosolic extract of NK1R-transfected 293T cells: 7 fold
Substance: granzyme B (enzyme)
